Reference: US20090297503A1 (Chugai, published 2009)

Experiments:
[1] = target: T1, Factor VIII heavy chain (human, UniProt P00451 20-1667, limits assumed); experiment: SPR (BIAcore X), moAb216 coupled to CM5 chip, heavy chain in flow, 37 C; calculated as kdiss/kasso
T1 construct: only the heavy chain part stood in the assay; also called HCh
Description: (§1) The kinetics of moAb216 interaction with Factor VIII was determined by SPR-based assay using a BIAcore X instrument (Biacore AB, Uppsala, Sweden) as previously reported. moAb216 was covalently coupled to the surface of CM5 chip at a coupling density of up to 5 ng/mm². Binding (association) of the ligand was monitored in the running buffer (10 mM HEPES pH 7.4, 0.1 M NaCl, 1 mM CaCl₂, 0.005% polysorbate 20) for two minutes at a flow rate 20 μl/min. The dissociation of bound ligand was recorded over a two-minute period by replacing the ligand-containing buffer with buffer only. The level of nonspecific binding as a result of ligand binding to the uncoated chip was subtracted from the signal. Reactions were performed at 37° C. The rate constants for association (kₐₛₛₒ) and dissociation (kdiss) were determined by nonlinear regression analysis using the evaluation software provided by Biacore AB. The dissociation constant (Kd) was calculated as kdiss/kₐₛₛₒ.
(§2) Reactions were performed as described under “Materials and Methods”. Parameter values were calculated by nonlinear regression analysis using the evaluation software provided by Biacore AB. ^{#}Values were calculated as kdiss/kₐₛₛₒ. *not determined

[2] = target: T2, recombinant human blood coagulation Factor VIII (Kogenate FS) (human, UniProt P00451 20-2351); experiment: ELISA: Factor VIII (50 nM) coated on microtiter wells, biotinylated moAb216 added, detected with peroxidase-conjugated streptavidin, absorbance at 492 nm
T2 construct: The background describes the protein as a heavy chain/light chain heterodimer and numbers 2,332 residues; the entry may also carry the signal peptide; also called F.VIII
Description: (§3) Microtiter wells were coated with Factor VIII or its subunit (50 nM) in 20 mM Tris, and 0.15 M NaCl, pH 7.4, overnight at 4° C. The wells were washed with PBS containing 0.01% Tween 20 and were blocked with PBS containing 5% HSA for two hours at 37° C. The indicated concentrations of biotinylated-moAb216 were then added in 20 mM HEPES, 0.1 M NaCl, 5 mM CaCl₂, and 0.01% Tween 20, pH 7.2 (HBS-buffer) containing 1% HSA for two hours at 37° C. Bound IgG was quantified by the addition of peroxidase-conjugated streptavidin and O-phenylenediamine dihydrochloride substrate. Reactions were stopped by the addition of 2 M H₂SO₄, and absorbance was measured at 492 nm. The amount of nonspecific binding of anti-mouse peroxidase-conjugated IgG in the absence of moAb216 was <5% of the total signal. Specific binding was recorded after subtracting the nonspecific binding.

[3] = target: T1, Factor VIII heavy chain; experiment: SPR (BIAcore X), moAb216 coupled to CM5 chip, heavy chain in flow, 37 C
Description: as §1, §2

[4] = target: T3, Factor VIII A2 subunit (human, UniProt P00451 392-759); experiment: SPR (BIAcore X), moAb216 coupled to CM5 chip, A2 in flow, 37 C; calculated as kdiss/kasso
T3 construct: only the A2 subunit stood in the assay; also called A2 domain
T3 sequence: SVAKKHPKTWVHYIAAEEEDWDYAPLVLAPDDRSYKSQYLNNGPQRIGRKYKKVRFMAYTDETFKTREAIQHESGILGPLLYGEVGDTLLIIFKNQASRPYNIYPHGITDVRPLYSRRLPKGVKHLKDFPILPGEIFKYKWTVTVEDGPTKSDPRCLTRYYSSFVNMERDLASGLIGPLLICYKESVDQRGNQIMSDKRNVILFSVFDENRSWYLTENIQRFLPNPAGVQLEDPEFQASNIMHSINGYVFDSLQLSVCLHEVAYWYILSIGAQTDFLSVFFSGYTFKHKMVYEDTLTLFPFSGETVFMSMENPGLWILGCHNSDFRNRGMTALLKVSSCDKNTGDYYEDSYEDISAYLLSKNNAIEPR
Description: as §1, §2

[5] = target: T1, Factor VIII heavy chain; experiment: ELISA: Factor VIII heavy chain (50 nM) coated on microtiter wells, biotinylated moAb216 added, detected with peroxidase-conjugated streptavidin, absorbance at 492 nm
Description: as §3

[6] = target: T4, Factor VIII light chain (human, UniProt P00451 1668-2351); experiment: ELISA: Factor VIII light chain (50 nM) coated on microtiter wells, biotinylated moAb216 added, detected with peroxidase-conjugated streptavidin, absorbance at 492 nm
T4 construct: only the light chain part stood in the assay; also called LCh
T4 sequence: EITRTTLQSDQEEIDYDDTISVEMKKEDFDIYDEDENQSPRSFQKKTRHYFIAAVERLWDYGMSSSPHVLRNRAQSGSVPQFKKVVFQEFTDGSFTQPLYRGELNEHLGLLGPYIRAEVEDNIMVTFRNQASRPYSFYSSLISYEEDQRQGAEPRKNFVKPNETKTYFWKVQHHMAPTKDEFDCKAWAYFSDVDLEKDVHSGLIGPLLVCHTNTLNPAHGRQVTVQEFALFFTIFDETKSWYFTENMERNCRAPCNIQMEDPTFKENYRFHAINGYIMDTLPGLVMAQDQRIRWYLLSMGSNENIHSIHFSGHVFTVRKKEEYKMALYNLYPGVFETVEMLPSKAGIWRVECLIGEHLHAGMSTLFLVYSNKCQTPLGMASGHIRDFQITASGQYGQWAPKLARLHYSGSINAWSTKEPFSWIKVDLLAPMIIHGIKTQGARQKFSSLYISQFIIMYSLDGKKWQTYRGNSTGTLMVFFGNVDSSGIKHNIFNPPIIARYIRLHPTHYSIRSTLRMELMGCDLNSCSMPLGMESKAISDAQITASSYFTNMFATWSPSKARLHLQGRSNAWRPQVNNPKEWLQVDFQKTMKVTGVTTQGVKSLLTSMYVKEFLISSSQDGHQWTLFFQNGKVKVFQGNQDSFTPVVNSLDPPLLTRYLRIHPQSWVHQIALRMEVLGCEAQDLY
Description: as §3

[7] = target: T5, Factor VIII A1 subunit (human, UniProt P00451 20-391); experiment: ELISA: Factor VIII A1 subunit (50 nM) coated on microtiter wells, biotinylated moAb216 added, detected with peroxidase-conjugated streptavidin, absorbance at 492 nm
T5 construct: only the A1 subunit stood in the assay; also called A1 domain
T5 sequence: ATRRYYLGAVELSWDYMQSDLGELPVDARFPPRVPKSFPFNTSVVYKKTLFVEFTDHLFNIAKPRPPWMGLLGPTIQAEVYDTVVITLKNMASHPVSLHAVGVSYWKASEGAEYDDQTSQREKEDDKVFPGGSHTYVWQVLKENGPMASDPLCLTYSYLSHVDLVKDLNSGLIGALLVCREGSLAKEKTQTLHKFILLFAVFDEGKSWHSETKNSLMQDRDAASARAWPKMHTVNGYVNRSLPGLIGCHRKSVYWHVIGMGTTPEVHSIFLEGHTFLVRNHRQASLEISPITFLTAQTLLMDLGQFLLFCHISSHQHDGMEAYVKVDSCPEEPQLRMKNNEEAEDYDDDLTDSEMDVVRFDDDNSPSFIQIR
Description: as §3

[8] = target: T2, recombinant human blood coagulation …; experiment: cell-based or functional assay
[9] = target: T2, recombinant human blood coagulation …; experiment: SPR (BIAcore X), moAb216 coupled to CM5 chip, Factor VIII in flow, 37 C; calculated as kdiss/kasso
Description: as §1, §2

[10] = target: T2, recombinant human blood coagulation …; experiment: SPR (BIAcore X), moAb216 coupled to CM5 chip, Factor VIII in flow, 37 C
Description: as §1, §2

[11] = target: T3, Factor VIII A2 subunit; experiment: SPR (BIAcore X), moAb216 coupled to CM5 chip, A2 in flow, 37 C
Description: as §1, §2

Kd [1]: 3 nM | EC50 (read off the curve) [2]: ~0.08 µg/mL | koff [3]: 0.0009 s⁻¹ | kon [3]: 294000 M⁻¹ s⁻¹ | Kd [4]: 0.8 nM | EC50 (read off the curve) [5]: ~0.09 µg/mL | binding result [6]: no binding (tested: 1.25 µg/ml) | binding result [7]: no binding (tested: 1.25 µg/ml) | percentage of Factor Xa cleavage at Arg372 (A2/A1-A2 ratio, densitometry) [8]: ≤ 2 times | rate of thrombin cleavage at Arg372 (A2 product/A1-A2 substrate ratio, densitometry of Western blot) [8]: ~2 times | Kd [9]: 1.1 nM | koff [10]: 0.001 s⁻¹ | kon [10]: 930000 M⁻¹ s⁻¹ | koff [11]: 0.0002 s⁻¹ | kon [11]: 238000 M⁻¹ s⁻¹
B1: anti-Factor VIII monoclonal antibody moAb216 (antibody, V domains shown)
VH: EVRLVESGGGLVKPGGSLKLSCAASEFTFSSYSMSWVRQTPEKRLEWVASINSGGRTFYPDSVKGRFTISRDNARNILVLQMSSLRSEDTAMYYCARVIYYDYGAYALDYWGQGTSLTVSS
VL: EIVLTQSPALMAAYPGEKVTITCSVSSSISSSNLHWYQQKSETSPKLWIYGTSNLASGVPVRFSGSGSGTSYSLTISSMEAEDAATYYCQQWNIYPLTFGAGTKLELK
notes: It was biotinylated for the ELISAs and coupled covalently to a CM5 chip for SPR; also called moAb216 IgG; biotinylated moAb216
